Data from article doi:10.1101/2024.03.04.583305.

Key:
Assay in all cases: EMSA
DuoMYC (5) (synthetic) = DuoMYC (5) (synthetic) (UniProt P01106)
DuoMYC (7) (synthetic) = DuoMYC (7) (synthetic) (UniProt P01106)
monoMYC (4) (synthetic) = monoMYC (4) (synthetic) (UniProt P01106)
monoMYC (4) (synthetic), sequence (P01106 365-423): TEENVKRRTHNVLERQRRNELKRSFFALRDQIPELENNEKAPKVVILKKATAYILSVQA

DuoMYC (7) (synthetic), sequence (P01106 whole entry): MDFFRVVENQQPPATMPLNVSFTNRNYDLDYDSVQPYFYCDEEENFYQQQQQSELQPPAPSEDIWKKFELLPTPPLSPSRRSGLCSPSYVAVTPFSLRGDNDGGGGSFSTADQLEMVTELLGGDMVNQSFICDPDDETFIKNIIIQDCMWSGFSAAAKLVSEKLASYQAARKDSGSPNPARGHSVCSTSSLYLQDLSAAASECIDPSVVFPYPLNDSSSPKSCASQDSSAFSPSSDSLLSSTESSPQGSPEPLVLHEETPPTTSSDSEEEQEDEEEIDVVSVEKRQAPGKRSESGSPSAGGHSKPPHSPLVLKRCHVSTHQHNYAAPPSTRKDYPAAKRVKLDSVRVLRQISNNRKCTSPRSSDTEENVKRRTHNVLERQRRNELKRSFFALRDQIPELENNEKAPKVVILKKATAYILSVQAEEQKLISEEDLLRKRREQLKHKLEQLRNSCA
DuoMYC (5) (synthetic), sequence (P01106 365-423): as the sequence (P01106 365-423) above

## ACCCCACCACGTGGTGCCT (double strand) [E-Box DNA]
DuoMYC (5) (synthetic)
  Kd: 118 nM
DuoMYC (7) (synthetic)
  Kd: 174 nM
monoMYC (4) (synthetic)
  Kd: 969 nM
